Laboratory results as given in patent publication US9260505B2, “Methods for screening for binding partners of G-protein coupled receptors” (Heptares Therapeutics Limited, priority 2007, dated 2016).
Substitutions are numbered along the chain they refer to. In names and notes the source's numbering stands. Several values for one entry are separate records, joined by “and”; a condition that tells them apart may be missing. Equal entries are not always repeated. Where two headings read alike, the source gives them in different places.

Columns and labels:
βAR-m23 = βAR-m23 (Meleagris gallopavo, UniProt P07700, A282L/C116L/F327A/F338M/M90V/R68S/Y227A); format: binding, turkey
β1AR36-M23 = biological target: T1, β1AR36-M23 (Meleagris gallopavo, UniProt P07700, A282L/C116L/C358A/DEL244-271/DEL277-278/F327A/F338M/M90V/R68S/Y227A); assay: biochemical; format: binding, turkey; details: for kd: 10° C., footnote 1 averaged from two b1AR surfaces, footnote 2 preliminary results
T1 construct: beta-36 construct (amino acid residues 34-367 of the turkey beta receptor containing the following changes); His6 (C); made in house; host or cells: insect cells, baculovirus (stated for the beta-36 construct in the crystallisation text)
Experimental: Binding studies were performed at 10° C. using a Biacore S51 optical biosensor equipped with a streptavidin-coated CM5 chip and equilibrated with running buffer (20 mM trisHCl, 150 mM NaCl, 1 mM EDTA, 1% DMSO, 0.1% decyl maltoside, pH 7.8).
Flow through of the compound allowed the on rate to be determined. Subsequent washing enabled determination of the off rate. These parameters could then be used to determine a kinetic affinity measurement (Kd).

A2aR mutant Rag 23 = details: detergent-solubilised
[1] = Thermostability of neurotensin receptor and mutants (3H-neurotensin binding); format: physicochemical; details: neurotensin bound
Experimental: • 1. 340 site-directed mutants have been made between residues 61-400 of NTR. • 2. Initially, all of these mutants were assayed for thermostability using an assay measuring ^3H-neurotensin (agonist) binding after the heating step. […] Mutants tested for thermostability by heating in the absence of the agonist were re-tested using a slightly different assay where the mutants were heated in the presence of ^3H-neurotensin (Ligand(+) format in FIG. 12). […] All of these also have increased thermostability. • 5. Preferred combinations are • a. Nag7m F358A+A86L+I260A+F342A Tm 51° C. (neurotensin bound) • b. Nag7n F358A+H103A+I260A+F342A Tm 51° C. (neurotensin bound)

[2] = Thermostability of β adrenergic receptors expressed in mammalian cells, minus-ligand format (FIG. 26); details: 0.1% dodecylmaltoside, apo-state heated, 3H-DHA
Source text: The resulting mutants were transiently expressed in mammalian cells, solubilised in 0.1% dodecylmaltoside and assayed for thermostability in the minus-ligand format (heating the apo-state, quenching on ice, adding 3H-DHA).

[3] = Thermostability of detergent-solubilised βAR34-424 and mutants ([3H]-DHA binding after heating 30 min)
Experimental: Binding assays were performed using [^3H]-dihydroalprenolol (DHA) as radioligand as described under “Methods”. Samples were heated for 30 minutes at different temperatures before the assay. […] Data points are from duplicates of one single experiment.
Single point binding assays contained 20 mM Tris pH 8, 0.4 M NaCl, 1 mM EDTA, 0.1% DDM (or corresponding detergent) with 50 nM [^3H]-DHA and 20-100 μg membrane protein in a final volume of 120 μl; equilibration was for 1 h at 4° C. Thermostability was assessed by incubating the binding assay mix, with or without [^3H]-DHA at the specified temperature for 30 minutes; reactions were placed on ice and [^3H]-DHA added as necessary and equilibrated for a further hour. Receptor-bound and free radioligand were separated by gel filtration as described previously[18]. […] Radioactivity was counted on a Beckman LS6000 liquid scintillation counter and data were analyzed by nonlinear regression using Prism software (GraphPad).

[4] = Thermostability of solubilised adenosine A2a receptor and mutants; format: physicochemical; details: for Tm + agonist / Tm + antagonist / Tm − agonist / Tm − antagonist: 1% DDM, no glycerol; for Tm + agonist: agonist-occupied; for Tm + antagonist: antagonist-occupied; for Tm − agonist / Tm − antagonist: apo-state; for Tm: ZM241385 bound
Experimental: • 1. 315 site-directed mutants made between residues 2-316 of A2aR. • 2. All of these mutants have been assayed for thermostability using an assay measuring agonist and antagonist binding after the heating step (Ligand(−) format as described in FIG. 12). • a. […] Mutations have been combined to generate mutants in a putative antagonist conformation. Wildtype A2aR has a Tm of 31° C. with ZM241385 bound.

[5] = apo-state heated 30 min, E. coli expressed, DDM-solubilised, mean ± S.E. from duplicates

T1 sequence (P07700 other isoform, or with tags, fused parts or gaps with the stated changes): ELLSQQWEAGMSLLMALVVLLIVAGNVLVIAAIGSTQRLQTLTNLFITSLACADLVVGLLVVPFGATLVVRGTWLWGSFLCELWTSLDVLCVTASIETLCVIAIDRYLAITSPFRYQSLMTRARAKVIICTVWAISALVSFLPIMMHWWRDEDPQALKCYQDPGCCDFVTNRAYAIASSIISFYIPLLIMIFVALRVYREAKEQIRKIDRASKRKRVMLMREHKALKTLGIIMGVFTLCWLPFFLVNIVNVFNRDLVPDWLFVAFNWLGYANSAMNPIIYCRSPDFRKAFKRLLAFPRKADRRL
Sequence of βAR-m23 (P07700 34-424 R68S/M90V/C116L/Y227A/A282L/F327A/F338M): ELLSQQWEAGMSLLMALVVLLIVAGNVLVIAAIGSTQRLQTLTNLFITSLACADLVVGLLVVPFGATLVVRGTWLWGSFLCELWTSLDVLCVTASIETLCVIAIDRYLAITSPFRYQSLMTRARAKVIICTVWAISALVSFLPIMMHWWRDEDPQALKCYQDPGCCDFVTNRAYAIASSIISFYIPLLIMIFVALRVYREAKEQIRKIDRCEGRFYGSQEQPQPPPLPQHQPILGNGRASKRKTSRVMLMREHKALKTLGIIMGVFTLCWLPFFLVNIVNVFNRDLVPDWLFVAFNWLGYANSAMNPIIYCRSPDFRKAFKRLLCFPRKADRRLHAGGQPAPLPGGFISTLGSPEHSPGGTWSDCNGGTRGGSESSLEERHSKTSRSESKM

1-[4,6-propyl-^3H]-dihydroalprenolol [[^3H]-dihydroalprenolol]
Kd (βAR-m23; membranes, n=2): 6.5 ± 0.2 nM
Kd (βAR-m23; semipurified receptor): 12.5 nM

OCc1cc(C(O)CNCCCCCCOCCCCc2ccccc2)ccc1O (centres unmarked) [Salmeterol]
Kd (β1AR36-M23): 2500 ± 300 nM
kd (β1AR36-M23): (9.5 ± 0.4) × 10^−2 s^−1
binding strength compared with alprenolol or propranolol (β1AR36-M23; in words): bound the receptor much more weakly
dissociation rate compared with the other compounds (β1AR36-M23; in words): dissociated much faster

CCNC(=O)[C@H]1O[C@@H](n2cnc3c(N)ncnc32)[C@H](O)[C@@H]1O [[^3H]NECA]
Kd (A2aR mutant Rag 23): 21 ± 1 nM

C=CCc1ccccc1OC[C@@H](O)CNC(C)C [alprenolol]
Kd (β1AR36-M23): 44 ± 1 nM
kd (β1AR36-M23): (6.3 ± 0.1) × 10^−3 s^−1

Wildtype NTR: wild-type neurotensin receptor [reference compound]
Tm [1]: 35 °C

human β1: human β1 adrenergic receptor
apparent Tm [2]: ~12 °C

m6-4: βAR34-424 mutant R68S, Y227A, A234L, A282L
Tm [3, 5]: 41.6 ± 0.1 °C

m6-5: βAR34-424 mutant R68S, A234L, A282L, A334L
Tm [3, 5]: 41.9 ± 0.5 °C

m6-9: βAR34-424 mutant R68S, Y227A, A234L, A282L, A334L
Tm [3, 5]: 43.7 ± 0.4 °C

m6-10: βAR34-424 mutant R68S, Y227A, A282L, A334L
Tm [3, 5]: 47.4 ± 1.1 °C

m7-1: βAR34-424 mutant M90V, A282L, F338M
Tm [3, 5]: 43.0 ± 0.8 °C

m7-7: βAR34-424 mutant M90V, Y227A, F338M
Tm [3, 5]: 45.2 ± 2.0 °C

m10-4: βAR34-424 mutant R68S, M90V, V230A, A334L
Tm [3, 5]: 46.9 ± 1.0 °C

m20: βAR34-424 mutant R68S, M90V, F327A, A334L
Tm [3, 5]: 48.4 ± 0.7 °C

m23: βAR34-424 mutant R68S, M90V, Y227A, A282L, F327A, F338M
Tm ([3]; Ni-NTA partially purified, in DDM): 52 °C
Tm ([3]; Ni-NTA partially purified, in DM): 48 °C
Tm ([3]; Ni-NTA partially purified, in LDAO): 23 °C
Tm ([3]; Ni-NTA partially purified, in NG): 25 °C
Tm ([3]; Ni-NTA partially purified, in OG): 17 °C
Tm with antagonist bound ([3]; [3H]-DHA bound during heating): 55 °C
increase in Tm with bound antagonist ([3]; antagonist bound versus without antagonist): 2 °C
Tm [3, 5]: 52.8 °C and 52.8 ± 1.4 °C

turkey β1: turkey β1 adrenergic receptor transiently expressed in mammalian cells
apparent Tm [2]: 23 °C

wt: wild-type human adenosine A2a receptor [reference compound]
Tm, Agonist-binding ([4]; 0.003% LDAO): 28 °C
Tm, Antagonist-binding ([4]; 0.003% LDAO): 32 °C
Tm, Agonist-binding ([4]; 0.006% FC12): 37 °C
Tm, Antagonist-binding ([4]; 0.006% FC12): 43 °C
Tm, Agonist-binding ([4]; 0.01% DDM): 27 °C
Tm, Antagonist-binding ([4]; 0.01% DDM): 25 °C
Tm, Agonist-binding ([4]; 0.1% DM): 23 °C
Tm, Antagonist-binding ([4]; 0.1% DM): 10 °C
Tm, Agonist-binding ([4]; 0.3% NM): 22 °C
Tm, Antagonist-binding ([4]; 0.3% NM): <4 °C
Tm, Agonist-binding ([4]; 0.6% OG): <9 °C
Tm + agonist [4]: 29 °C
Tm + antagonist [4]: 32 °C
Tm − agonist [4]: 21 °C
Tm − antagonist [4]: 31 °C
Tm [4]: 31 °C

B1: Rant17: A2aR mutant A54L + K122A + L235A (protein, UniProt P29274 1-412, looked up, variant A54L K122A L235A)
Adenosine receptor A2a: MPIMGSSVYITVELAIAVLAILGNVLVCWAVWLNSNLQNVTNYFVVSLAAADILVGVLAIPFAITISTGFCAACHGCLFIACFVLVLTQSSIFSLLAIAIDRYIAIRIPLRYNGLVTGTRAAGIIAICWVLSFAIGLTPMLGWNNCGQPKEGKNHSQGCGEGQVACLFEDVVPMNYMVYFNFFACVLVPLLLMLGVYLRIFLAARRQLKQMESQPLPGERARSTLQKEVHAAKSAAIIVGLFALCWLPLHIINCFTFFCPDCSHAPLWLMYLAIVLSHTNSVVNPFIYAYRIREFRQTFRKIIRSHVLRQQEPFKAAGTSARVLAAHGSDGEQVSLRLNGHPPGVWANGSAPHPERRPNGYALGLVSGGSAQESQGNTGLPDVELLSHELKGVCPEPPGLDDPLAQDGAGVS
Tm [4]: Tm 48 °C (ZM241385 bound)

B2: Rant21: A2aR mutant A54L, T88A, V239A + K122A (protein, UniProt P29274 1-412, looked up, variant A54L T88A V239A K122A)
Adenosine receptor A2a: B1 Adenosine receptor A2a with T88A, A235L, V239A
Tm, Antagonist-binding ([4]; 0.003% LDAO): 42 °C
Tm, Antagonist-binding ([4]; 0.006% FC12): 49 °C
Tm, Antagonist-binding ([4]; 0.01% DDM): 39 °C
Tm, Antagonist-binding ([4]; 0.1% DM): 28 °C
Tm, Antagonist-binding ([4]; 0.3% NG): 22 °C
Tm, Antagonist-binding ([4]; 0.3% NM): 25 °C
Tm, Antagonist-binding ([4]; 0.6% OG): 23 °C
Tm + antagonist [4]: 49 °C
Tm − antagonist [4]: 41 °C
Tm [4]: Tm 49 °C (ZM241385 bound)

B3: Rag 1: A2aR mutant A184L/R199A/L272A (protein, UniProt P29274 1-412, looked up, variant A184L R199A L272A)
Adenosine receptor A2a: B1 Adenosine receptor A2a with L54A, A122K, A184L, R199A, A235L, L272A
Tm + agonist [4]: 34 °C
Tm − agonist [4]: 26 °C

B4: Rant19: A2aR mutant A54L, T88A, V239A + A204L (protein, UniProt P29274 1-412, looked up, variant A54L T88A V239A A204L)
Adenosine receptor A2a: B1 Adenosine receptor A2a with T88A, A122K, A204L, A235L, V239A
Tm [4]: Tm 47 °C (ZM241385 bound)

B5: Rant 5: A2aR mutant A54L/T88A/V239A (protein, UniProt P29274 1-412, looked up, variant A54L T88A V239A)
Adenosine receptor A2a: B1 Adenosine receptor A2a with T88A, A122K, A235L, V239A
Tm + antagonist [4]: 46 °C
Tm − antagonist [4]: 42 °C

B6: Nag7m: rat neurotensin receptor mutant F358A+A86L+I260A+F342A (protein, UniProt P20789 1-424, looked up, variant F358A A86L I260A F342A)
Neurotensin receptor type 1: MHLNSSVPQGTPGEPDAQPFSGPQSEMEATFLALSLSNGSGNTSESDTAGPNSDLDVNTDIYSKVLVTAIYLALFVVGTVGNSVTLFTLARKKSLQSLQSTVHYHLGSLALSDLLILLLAMPVELYNFIWVHHPWAFGDAGCRGYYFLRDACTYATALNVASLSVERYLAICHPFKAKTLMSRSRTKKFISAIWLASALLAIPMLFTMGLQNRSGDGTHPGGLVCTPIVDTATVKVVIQVNTFMSFLFPMLVISILNTVAANKLTVMVHQAAEQGRVCTVGTHNGLEHSTFNMTIEPGRVQALRHGVLVLRAVVIAFVVCWLPYHVRRLMFCYISDEQWTTALFDFYHYFYMLTNALAYVSSAINPILYNLVSANFRQVFLSTLACLCPGWRHRRKKRPTFSRKPNSMSSNHAFSTSATRETLY
Tm [1]: 51 °C

B7: Nag7n: rat neurotensin receptor mutant F358A+H103A+I260A+F342A (protein, UniProt P20789 1-424, looked up, variant F358A H103A I260A F342A)
Neurotensin receptor type 1: B6 Neurotensin receptor type 1 with L86A, H103A
Tm [1]: 51 °C
